Publication doi:10.1101/2024.02.22.581614 (bioRxiv, 2024)

Biological target: T1, Extant nitrogenase molybdenum-iron protein alpha chain, NifD (A. vinelandii) (Azotobacter vinelandii, UniProt P07328 1-492)
T1 sequence (looked up): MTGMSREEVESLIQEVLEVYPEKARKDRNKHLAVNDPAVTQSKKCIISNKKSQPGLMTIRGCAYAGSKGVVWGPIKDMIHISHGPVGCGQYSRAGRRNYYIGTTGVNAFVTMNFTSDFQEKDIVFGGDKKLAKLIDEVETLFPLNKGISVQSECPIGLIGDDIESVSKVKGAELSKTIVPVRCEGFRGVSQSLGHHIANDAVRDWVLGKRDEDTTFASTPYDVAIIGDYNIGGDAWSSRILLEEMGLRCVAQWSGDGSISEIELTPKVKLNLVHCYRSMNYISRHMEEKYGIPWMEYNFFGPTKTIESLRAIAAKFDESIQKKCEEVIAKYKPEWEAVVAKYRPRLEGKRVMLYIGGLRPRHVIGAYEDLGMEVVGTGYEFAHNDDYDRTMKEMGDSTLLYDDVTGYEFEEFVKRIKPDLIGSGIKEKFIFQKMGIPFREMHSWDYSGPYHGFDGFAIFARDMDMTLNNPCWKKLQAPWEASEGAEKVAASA
Experiment: affinity co-purification

stoichiometry N: 0.93 D:K
B1: Extant nitrogenase molybdenum-iron protein beta chain, NifK (A. vinelandii) (enzyme, Azotobacter vinelandii, UniProt P07329 1-523, looked up)
chain: MSQQVDKIKASYPLFLDQDYKDMLAKKRDGFEEKYPQDKIDEVFQWTTTKEYQELNFQREALTVNPAKACQPLGAVLCALGFEKTMPYVHGSQGCVAYFRSYFNRHFREPVSCVSDSMTEDAAVFGGQQNMKDGLQNCKATYKPDMIAVSTTCMAEVIGDDLNAFINNSKKEGFIPDEFPVPFAHTPSFVGSHVTGWDNMFEGIARYFTLKSMDDKVVGSNKKINIVPGFETYLGNFRVIKRMLSEMGVGYSLLSDPEEVLDTPADGQFRMYAGGTTQEEMKDAPNALNTVLLQPWHLEKTKKFVEGTWKHEVPKLNIPMGLDWTDEFLMKVSEISGQPIPASLTKERGRLVDMMTDSHTWLHGKRFALWGDPDFVMGLVKFLLELGCEPVHILCHNGNKRWKKAVDAILAASPYGKNATVYIGKDLWHLRSLVFTDKPDFMIGNSYGKFIQRDTLHKGKEFEVPLIRIGFPIFDRHHLHRSTTLGYEGAMQILTTLVNSILERLDEETRGMQATDYNHDLVR
